The data set “crystal structure” concerns the molecule itself. The data set is described as follows: crystal structure.
The data set “turbidity assay” concerns the molecule itself. The data set is described as follows: turbidity assay.

From paper doi:10.1101/2021.07.06.451223 (bioRxiv, 2021) come the findings set out here.

B1: CASQ1 S248E (amino acids 35-396) (natural protein, human, UniProt P31415 35-396, looked up)
chain: QEGLDFPEYDGVDRVINVNAKNYKNVFKKYEVLALLYHEPPEDDKASQRQFEMEELILELAAQVLEDKGVGFGLVDSEKDAAVAKKLGLTEVDSMYVFKGDEVIEYDGEFSADTIVEFLLDVLEDPVELIEGERELQAFENIEDEIKLIGYFKSKDSEHYKAFEDAAEEFHPYIPFFATFDSKVAKKLTLKLNEIDFYEAFMEEPVTIPDKPNEEEEIVNFVEEHRRSTLRKLKPESMYETWEDDMDGIHIVAFAEEADPDGFEFLETLKAVAQDNTENPDLSIIWIDPDDFPLLVPYWEKTFDIDLSAPQIGVVNVTDADSVWMEMDDEEDLPSAEELEDWLEDVLEGEINTEDDDDDDDD
By stoichiometry N is commonly meant a count of units in the complex or per binding partner. For the protein B1, the “stoichiometry N” value in “crystal structure” came out at 2.

B2: CASQ1 S369E (amino acids 35-396) (natural protein, human, UniProt P31415 35-396, looked up)
chain: QEGLDFPEYDGVDRVINVNAKNYKNVFKKYEVLALLYHEPPEDDKASQRQFEMEELILELAAQVLEDKGVGFGLVDSEKDAAVAKKLGLTEVDSMYVFKGDEVIEYDGEFSADTIVEFLLDVLEDPVELIEGERELQAFENIEDEIKLIGYFKSKDSEHYKAFEDAAEEFHPYIPFFATFDSKVAKKLTLKLNEIDFYEAFMEEPVTIPDKPNSEEEIVNFVEEHRRSTLRKLKPESMYETWEDDMDGIHIVAFAEEADPDGFEFLETLKAVAQDNTENPDLSIIWIDPDDFPLLVPYWEKTFDIDLSAPQIGVVNVTDADSVWMEMDDEEDLPEAEELEDWLEDVLEGEINTEDDDDDDDD
As for B2, in “turbidity assay”, the binding result is listed as “binds”.

B3: CASQ1 S248/369E (amino acids 35-396) (natural protein, human, UniProt P31415 35-396, looked up)
chain: QEGLDFPEYDGVDRVINVNAKNYKNVFKKYEVLALLYHEPPEDDKASQRQFEMEELILELAAQVLEDKGVGFGLVDSEKDAAVAKKLGLTEVDSMYVFKGDEVIEYDGEFSADTIVEFLLDVLEDPVELIEGERELQAFENIEDEIKLIGYFKSKDSEHYKAFEDAAEEFHPYIPFFATFDSKVAKKLTLKLNEIDFYEAFMEEPVTIPDKPNEEEEIVNFVEEHRRSTLRKLKPESMYETWEDDMDGIHIVAFAEEADPDGFEFLETLKAVAQDNTENPDLSIIWIDPDDFPLLVPYWEKTFDIDLSAPQIGVVNVTDADSVWMEMDDEEDLPEAEELEDWLEDVLEGEINTEDDDDDDDD
B3: the binding result in “turbidity assay” is listed as “binds”.
